Usually Kd stands for the concentration at which binding is half-saturated.

Data on 3 substances can be found in article PMC6175577, “BRCT domains of the DNA damage checkpoint proteins TOPBP1/Rad4 display distinct specificities for phosphopeptide ligands” (eLife, 2018).

In experiment [1] the target is TOPBP1 BRCT0,1,2 (UniProt Q92547). Kind of experiment: fluorescence polarisation titration. As to conditions: reference: pT202 peptide, untreated; sites T202. (Polarisation of emitted light reports the rotation of a fluorescent probe.)
The target in experiment [2] is RAD9 pS387 (Homo sapiens) (UniProt Q99638). As to conditions: cited from earlier work.
Sequence of RAD9 pS387 (Homo sapiens) (Q99638 whole entry): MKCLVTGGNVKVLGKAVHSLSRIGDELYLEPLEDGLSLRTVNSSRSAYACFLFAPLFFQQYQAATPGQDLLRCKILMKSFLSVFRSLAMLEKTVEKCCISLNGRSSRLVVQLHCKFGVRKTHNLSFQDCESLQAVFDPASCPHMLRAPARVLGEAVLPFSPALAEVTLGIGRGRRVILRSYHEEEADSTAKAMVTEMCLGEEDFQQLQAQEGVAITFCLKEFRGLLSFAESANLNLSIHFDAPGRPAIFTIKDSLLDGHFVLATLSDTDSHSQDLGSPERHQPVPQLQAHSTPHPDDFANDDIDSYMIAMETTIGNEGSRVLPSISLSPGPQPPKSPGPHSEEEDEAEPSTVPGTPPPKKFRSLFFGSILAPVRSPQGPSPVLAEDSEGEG
Experiment [3] addresses RHNO1 pT202 fluorescein-labelled phosphopeptide (human). Kind of experiment: fluorescence polarisation; fluorescein-labelled peptide at 200 nM, increasing concentrations of recombinant protein; room temperature; 25 mM HEPES pH 7.5, 150 mM NaCl, 1 mM EDTA, 0.25 mM TCEP, 0.02% Tween-20; one site-specific binding model.

Sequence of TOPBP1 BRCT1 (Q92547 98-192): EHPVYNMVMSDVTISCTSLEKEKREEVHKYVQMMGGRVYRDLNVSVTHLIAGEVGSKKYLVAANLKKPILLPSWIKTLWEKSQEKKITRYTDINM

Take “RHNO1 (from UniProt Q9BSD3) λ-phosphatase-dephosphorylated peptide”: the “binding against the reference” value in experiment [1] is listed as “lost”.

Consider TOPBP1 BRCT1 (from UniProt Q92547), for which the Kd in experiment [2] was 2100 nM.

Take “TOPBP1-BRCT0,1,2 segment, wild type (recombinant, fluorescence polarisation) (domain or fragment)”: in experiment [3], the fold tighter binding than RAD9-pS387 came to 10 fold.
